In publication PMC7968844:
Like-named read-outs stand apart in the source and are kept apart here.

## ERα: ERα-2M (T553A + S554A) in GREB1-KO cells
O-GlcNAc at S554
  degradation_or_half_life: no change
O-GlcNAc at T553
  degradation_or_half_life: no change

## ERα: GREB1-KO
O-GlcNAc at S554
  degradation_or_half_life: decreases
O-GlcNAc at T553
  degradation_or_half_life: decreases
